Where a chain is given by its changes, count along the chain named.
T1: human FB5 (endosialin) cancer antigen (human, UniProt Q9HCU0 18-757)
T1 construct: whole, on cells; The antigen is presented on LA1-5s cells; also called FB5 antigen
T1 sequence (looked up): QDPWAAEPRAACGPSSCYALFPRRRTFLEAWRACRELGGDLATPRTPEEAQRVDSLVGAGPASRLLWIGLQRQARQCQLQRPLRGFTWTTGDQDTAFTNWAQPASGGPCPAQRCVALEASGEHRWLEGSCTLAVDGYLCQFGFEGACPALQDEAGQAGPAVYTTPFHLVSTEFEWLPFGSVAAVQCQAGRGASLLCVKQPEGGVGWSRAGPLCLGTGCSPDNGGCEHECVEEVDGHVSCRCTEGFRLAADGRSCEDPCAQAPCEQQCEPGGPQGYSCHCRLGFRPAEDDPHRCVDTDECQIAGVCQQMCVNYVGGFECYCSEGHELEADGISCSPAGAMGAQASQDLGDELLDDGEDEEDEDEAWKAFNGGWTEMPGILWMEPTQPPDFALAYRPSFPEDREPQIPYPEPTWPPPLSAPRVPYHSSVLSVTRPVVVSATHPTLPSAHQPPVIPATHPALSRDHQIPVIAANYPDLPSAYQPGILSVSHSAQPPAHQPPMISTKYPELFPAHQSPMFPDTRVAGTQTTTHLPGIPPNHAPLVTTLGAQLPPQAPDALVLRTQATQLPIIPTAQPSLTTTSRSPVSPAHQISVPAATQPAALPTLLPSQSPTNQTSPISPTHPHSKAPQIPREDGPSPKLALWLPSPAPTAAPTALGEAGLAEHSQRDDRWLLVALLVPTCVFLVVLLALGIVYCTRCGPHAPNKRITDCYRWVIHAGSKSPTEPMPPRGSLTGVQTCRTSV

B1: FB5HuVHK/HuVK (antibody, V domains shown)
VH: QVQLQESGPGLVRPSQTLSLTCTASGYTFTDYVIHWVKQPPGRGLEWIGYINPYDDDTTYNQKFKGRVTMLVDTSSNTAYLRLSSVTAEDTAVYYCARRGNSYDGYFDYSMDYWGQGSLVTVSS
VL: DIQMTQSPSSLSASVGDRVTITCRASQNVGTAVAWLQQTPGKAPKLLIYSASNRYTGVPSRFSGSGSGTDYTFTISSLQPEDIATYYCQQYTNYPMYTFGQGTKVQIK
B2: FB5HuVH/HuVK (antibody, V domains shown)
VH: B1 VH with K38R
VL: B1 VL
notes: also called reshaped antibody FB5HuVH/HuVK
B3: FB5HuVHK,QA,LT,VK/HuVK (antibody, V domains shown)
VH: B1 VH with R67Q, V68A, M70L, L71T, D73V, T74K
VL: B1 VL

target: T1, human FB5 (endosialin) cancer antigen; test: mixed hemadsorption (MHA) rosetting assay on LA1-5s human neuroblastoma cells, protein A-conjugated red blood cells as indicator

Row | Concentration of antibody for 50% rosetting | Molecule
1 | 3 ng/mL | murine monoclonal antibody mAbFB5
2 | 3 ng/mL | chimeric FB5 antibody
3 | 16 ng/mL | B1
4 | 80 ng/mL | B2
5 | 16 ng/mL | B3
